Data from IntAct's records for PubMed 16717130.

B1: Serine/threonine-protein kinase PAK 1 (Homo sapiens), Q13153 (parent)
chain: MSNNGLDIQDKPPAPPMRNTSTMIGAGSKDAGTLNHGSKPLPPNPEEKKKKDRFYRSILPGDKTNKKKEKERPEISLPSDFEHTIHVGFDAVTGEFTGMPEQWARLLQTSNITKSEQKKNPQAVLDVLEFYNSKKTSNSQKYMSFTDKSAEDYNSSNALNVKAVSETPAVPPVSEDEDDDDDDATPPPVIAPRPEHTKSVYTRSVIEPLPVTPTRDVATSPISPTENNTTPPDALTRNTEKQKKKPKMSDEEILEKLRSIVSVGDPKKKYTRFEKIGQGASGTVYTAMDVATGQEVAIKQMNLQQQPKKELIINEILVMRENKNPNIVNYLDSYLVGDELWVVMEYLAGGSLTDVVTETCMDEGQIAAVCRECLQALEFLHSNQVIHRDIKSDNILLGMDGSVKLTDFGFCAQITPEQSKRSTMVGTPYWMAPEVVTRKAYGPKVDIWSLGIMAIEMIEGEPPYLNENPLRALYLIATNGTPELQNPEKLSAIFRDFLNRCLEMDVEKRGSAKELLQHQFLKIAKPLSSLTPLIAAAKEATKNNH

Variants of: B1
Conditions: with paxi_chick PXN

effect of a mutation on the interaction | Variant
decreasing interaction | K299A
increasing interaction | L107F
